This note sets out measurements from patent publication US20140227291A1.

Experiment [1] deals with Abeta(1-40) monomer in 0.1% NaOH (human). The experiment is described as follows: dot blot, antigen dilution series on nitrocellulose, antibody 0.2 µg/ml, densitometry.
The target in experiment [2] is Abeta(1-42) monomer in 0.1% NH4OH (human). The experiment is described as above.
Experiment [3] has as its target Abeta(1-42) globulomer (human) (UniProt P05067). The description is as above.
For experiment [4], the target named is Abeta(1-40) monomer in 0.1% NH4OH (human). The experiment is described as above.
Experiment [5] addresses Abeta(1-42) monomer in 0.1% NaOH (human). The description is as above.
Experiment [6] has as its target Abeta(1-42) fibril preparation (human) (UniProt P05067). Described as above.
For experiment [7], the target named is platelet factor 4 (PF-4) in Cynomolgus monkey plasma (Cynomolgus (Macaca fascicularis)). Nature of the experiment: aligned sandwich-ELISA, antibody 10 to 10000 ng/ml captured by anti-mouse IgG (Fc), cynomolgus plasma 1:100, OD450 against log concentration. On the technique in general: ELISA stands for enzyme-linked immunosorbent assay.
The target is the same in experiment [8]. The experiment is described as follows: aligned sandwich-ELISA: antibody dilution series captured by coated anti-mouse IgG (Fc), cynomolgus plasma 1:100, bound PF-4 detected with rabbit anti-HPF4 and anti-rabbit-POD.
Experiment [9] deals with human platelet factor 4 (PF-4) in HPF4-spiked human plasma (human) (UniProt P02776). Nature of the experiment: aligned sandwich-ELISA: antibody dilution series captured by coated anti-mouse IgG (Fc), HPF4-spiked human plasma 1:10, bound PF-4 detected with rabbit anti-HPF4 and anti-rabbit-POD.
For experiment [10], the target named is platelet factor 4 (PF-4) in Cynomolgus monkey plasma (Cynomolgus (Macaca fascicularis)). Nature of the experiment: aligned sandwich-ELISA with cynomolgus plasma; reference antibody.
Experiment [11] concerns the target human platelet factor 4 (PF-4) in HPF4-spiked human plasma (human) (UniProt P02776). Nature of the experiment: sandwich-ELISA, antibody coated at 10 µg/ml, HPF4-spiked human plasma dilutions 1:3.16 to 1:3160, OD450 against log dilution.
The target of experiment [12] is platelet factor 4 (PF-4) in Cynomolgus monkey plasma (Cynomolgus (Macaca fascicularis)). Nature of the experiment: sandwich-ELISA with cynomolgus plasma; reference antibody.
Experiment [13] concerns the target human platelet factor 4 (PF-4) in HPF4-spiked human plasma (human) (UniProt P02776). The experiment is described as follows: aligned sandwich-ELISA, antibody 10 to 10000 ng/ml captured by anti-mouse IgG (Fc), HPF4-spiked human plasma 1:10, OD450 against log concentration.
Experiment [14] has the same target. Nature of the experiment: sandwich-ELISA with HPF4-spiked human plasma; reference antibody.
Experiment [15] deals with platelet factor 4 (PF-4) in Cynomolgus monkey plasma (Cynomolgus (Macaca fascicularis)). The experiment is described as follows: sandwich-ELISA, antibody coated at 10 µg/ml, cynomolgus plasma dilutions 1:3.16 to 1:3160, OD450 against log dilution.
Experiment [16] addresses human platelet factor 4 (PF-4) in HPF4-spiked human plasma (human) (UniProt P02776). The experiment is described as follows: aligned sandwich-ELISA with HPF4-spiked human plasma; reference antibody.

human platelet factor 4 (PF-4) in HPF4-spiked human plasma (human), sequence (P02776 32-101): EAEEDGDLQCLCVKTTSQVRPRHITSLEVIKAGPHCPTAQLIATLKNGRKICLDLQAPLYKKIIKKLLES
platelet factor 4 (PF-4) in Cynomolgus monkey plasma (Cynomolgus (Macaca fascicularis)), sequence (chain, as listed by the source): as the sequence (P02776 32-101) above, with I64V counted along it
Abeta(1-42) monomer in 0.1% NaOH (human), sequence (peptide, as listed by the source): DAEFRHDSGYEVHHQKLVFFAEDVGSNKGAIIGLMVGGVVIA
Abeta(1-40) monomer in 0.1% NH4OH (human), sequence (peptide, as listed by the source): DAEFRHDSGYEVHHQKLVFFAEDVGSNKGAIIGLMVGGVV

In the case of “Anti-Abeta monoclonal antibody clone 6E10 (Covance cat. no. SIG-39320)”, the dot blot ratio (recognition of Abeta(20-42) globulomer relative to this Abeta form) in experiment [1] is 20; in [2] it was 10; in [3], 0.09; in [4] it was 3; in [5] it was 10; in experiment [6] it was 29.
“Anti-HPF4 monoclonal antibody (Abcam Cat. No. ab49735)”: the Area Under Curve in experiment [7] was 4.78; in experiment [11] it was 1.99; in experiment [13], 3.84; in experiment [15] it was 2.68. Moreover, the concentration giving a half-maximal response (EC50 (read off the curve)) (commonly the concentration needed to bring the measured effect to its halfway point) in [8] is 0.05 µg/mL; in [9], 0.07 µg/mL. The Ratio HPF4/aAbeta antibody (AUC of anti-HPF4 over AUC of this antibody) in [10], in [12], in experiment [14] and in [16] was 1 each time.
As for “Monoclonal antibody clone mIgG2a (negative control)”, the Area Under Curve in experiment [7] was determined as 0.015; in [11], 0.006; in experiment [13] it was 0.033; in experiment [15], 0.005.
